Test results taken from US20190309044A1, “POLYPEPTIDES AND USES THEREOF AS A DRUG FOR TREATMENT OF AUTOIMMUNE DISORDERS” (Compugen Ltd., priority 2017, published 2019).

What was measured:
SJL/J mice = assay: Trafficking of transferred cells into the CNS by flow cytometry, adoptive transfer R-EAE; assay type: in vivo, mouse; details: day +10 post cell transfer
Description: PLP139-151 sensitized cells were generated as described in Materials and Methods (cell counts in the reactivation culture are presented in Table 2) and labeled with PBSE (4 uM) before transfer to naïve mice. In study “Cgen data” (FIG. 12), disease was induced in recipient mice (n=10 per group) by i.v. transfer of 5×10^6 blast cells to each recipient mouse. A relatively large number of transferred cells were used in order to allow detection of the transferred cells by flow cytometry analysis at the end of the study. Mice were split into Control Ig and C1ORF32 ECD-Fc (SEQ ID NO:42) treatment groups, receiving 100 ug/dose intraperitoneal injection three times per week for 2 weeks. On Day +14 after cell transfer, 5 representative mice from each group were selected for analysis of trafficking of transferred cells into the CNS. Spleens, cervical lymph nodes, and CNS were collected, and the number of PBSE- or PBSE+/CD45+/CD3+/CD4+ T cells was analyzed by flow cytometric analysis.
An additional experiment (designated “MYC48 FACS”, FIG. 13) was performed using an alternative staining follow-up approach. […] To evaluate C1ORF32 ECD-Fc (SEQ ID NO:42) effect on immune cell trafficking to the CNS, spleens, cervical lymph nodes, and CNS cells collected form 5 mice on day +10 post cell transfer, and the number of transferred CD45hi PBSE+ or GFP+ cells was analyzed by flow cytometry. […]

[1] = test system: female C57BL/6 recipient mice; assay: HY bone marrow transplantation model, chimerism and T cell subtypes by FACS; assay type: in vivo, mouse
Source text: A transplantation model utilizing male bone marrow (BM) cells from C57BL/6 mice transplanted into female mice of the same starin was used to study whether C1ORF32 ECD-Fc induces immune tolerance. In this model BM cells of the male mouse are rejected by the female recipients due to mismatch in the minor histocompatibility antigen encoded by the Y chromosome (Hya). To allow identification of the male cells in the female mice blood, male mice expressing CD45.1 isotype were selected while the female mice carry CD45.2 isotype. This model provides a tool for testing the effect of potential drugs on induction of tolerance towards the grafted cells.
In this model, C1ORF32 ECD-Fc (SEQ ID NO:42) treatment started one week before bone marrow transplantation and continued for five weeks. Female recipient mice were followed for percentage of CD45.1+ and CD45.2+ cells present within the blood.
Female C57BL/6 recipient mice (CD45.2+) were sub-lethally irradiated with 200 rads/cGy 24 hours before transplantation of either female C57Bl/6 (CD45.1+) or male C57Bl/6 (CD45.1+) 5×10^6 bone marrow cells. Recipient mice were allocated into treatment groups as detailed below (n=6 per group). Treatments were given at 300 ug/dose i.p, 3×/wk starting one week prior to transplantation and continued for 4 weeks following transplantation, giving a total of 15 treatments during this 5 weeks period.
1. Female CD45.1 into female CD45.2 2. Male CD45.1 into female CD45.2+ anti-CD40L (300 ug/dose) (Clone MR-1; BioXCell, Cat#BE0017-1) 3. Male CD45.1 into female CD45.2+C1ORF ECD-Fc (SEQ ID NO:42) (300 ug/dose)2 4. Male CD45.1 into female CD45.2+ Control Ig (mouse IgG2a) (300 ug/dose)
Beginning at 2 weeks following bone marrow transplantation, blood samples from the tail were collected from each mouse once a week for 4 weeks. Approximately 2-3 drops of blood were collected per mouse into 200 ul of PBS+EDTA (50 mM), samples were spun down, and RBCs lysed with ammonium chloride. The cells were washed 3× with PBS, stained with the viability dye Aqua Dead Cell Stain (Invitrogen; Cat#L34957), blocked with Fc Receptor block (anti-mouse CD16/32; eBioscience; Cat#14-0161-86), and stained with anti-mouse CD45.1 APC-Cy7 (eBiosciences; Cat#47-0453-80) and anti-mouse CD45.2 FITC (eBioscience; Cat#11-0454-82). The analysis for chimerism was determined by flow cytometric analysis (on total live cells) for the percentage of CD45.1+ versus CD45.2+ cells present in the blood of female recipient mice.
During weeks 6, 7, and 8 the blood samples were also stained to determine the percentage of CD4+ Teff cells and CD4+ Treg cells present within the blood using the cellular markers CD44, CD25, and FoxP3. Details of the Abs used in the flow panels for weeks 6, 7, and 8 are listed below.

B1: C1ORF32 ECD-Fc (SEQ ID NO:42): human-mouse fusion protein: human C1ORF32 ECD fused to mouse immunoglobulin Fc (SEQ ID NO:42) (protein)
chain: LQVTVPDKKKVAMLFQPTVLRCHFSTSSHQPAVVQWKFKSYCQDRMGESLGMSSTRAQSLSKRNLEWDPYLDCLDSRRTVRVVASKQGSTVTLGDFYRGREITIVHDADLQIGKLMWGDSGLYYCIITTPDDLEGKNEDSVELLVLGRTGLLADLLPSFAVEIMGSENLYFQGSGEPRGPTIKPCPPCKCPAPNLLGGPSVFIFPPKIKDVLMISLSPIVTCVVVDVSEDDPDVQISWFVNNVEVHTAQTQTHREDYNSTLRVVSALPIQHQDWMSGKEFKCKVNNKDLPAPIERTISKPKGSVRAPQVYVLPPPEEEMTKKQVTLTCMVTDFMPEDIYVEWTNNGKTELNYKNTEPVLDSDGSYFMYSKLRVEKKNWVERNSYSCSVVHEGLHNHHTTKSFSRTPGK
modifications: Fusion protein human C1ORF32-ECD fused to mouse IgG2a Fc
B1 was tested, and the “number of total or activated transferred T cells in spleen and cervical lymph nodes” value (SJL/J mice) was “No change”, the “male CD45.1+ cells in the blood of recipient females” value ([1]; by week 4 post transplantation, maintained until week 8, 300 ug/dose i.p. 3x/wk 5 weeks) was “highly significant number of male CD45.1+ cells were present” and the “effector/memory CD4+ T cells (CD45.1+/CD4+/CD44hi) in blood” value ([1]; week 6, vs Control Ig) was “decrease”. For the same molecule, the “CD45.2+ and CD4+ T cells within the spleen” value ([1]; week 8, vs Control Ig) was “lower percentage and number”, the “donor Tregs (FoxP3+CD25+) in blood” value ([1]; week 8, vs Control Ig) was “significant increase” and the “donor activated CD4+ T cells (FoxP3-CD25+) in blood” value ([1]; week 8, vs Control Ig) was “decrease”. The “donor effector/memory CD4+ T cells (CD44hi) in blood” value ([1]; week 8, vs Control Ig) was “significant increase” and the “recipients' CD45.2+ T cell populations in blood” value ([1]; week 8, vs Control Ig) was “No differences”.
